Reference: US20240147984A1 (SYNKLINO A S, published 2024)

Key:
Experiment in all cases: cell-based or functional assay
US28 [1] = target: T1, US28 (human cytomegalovirus, UniProt P69332 1-354)
T1 sequence: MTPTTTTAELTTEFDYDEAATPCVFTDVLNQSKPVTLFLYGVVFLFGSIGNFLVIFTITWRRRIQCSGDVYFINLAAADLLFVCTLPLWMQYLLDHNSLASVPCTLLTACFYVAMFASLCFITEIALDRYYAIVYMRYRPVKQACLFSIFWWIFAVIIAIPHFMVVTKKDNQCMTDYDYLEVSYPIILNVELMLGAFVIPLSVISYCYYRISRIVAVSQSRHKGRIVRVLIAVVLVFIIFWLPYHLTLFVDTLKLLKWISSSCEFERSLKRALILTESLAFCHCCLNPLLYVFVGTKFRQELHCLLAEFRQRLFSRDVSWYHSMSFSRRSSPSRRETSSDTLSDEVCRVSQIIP

CX3CR1 = target: T2, CX3CR1 (human, UniProt P49238 1-355)
T2 sequence: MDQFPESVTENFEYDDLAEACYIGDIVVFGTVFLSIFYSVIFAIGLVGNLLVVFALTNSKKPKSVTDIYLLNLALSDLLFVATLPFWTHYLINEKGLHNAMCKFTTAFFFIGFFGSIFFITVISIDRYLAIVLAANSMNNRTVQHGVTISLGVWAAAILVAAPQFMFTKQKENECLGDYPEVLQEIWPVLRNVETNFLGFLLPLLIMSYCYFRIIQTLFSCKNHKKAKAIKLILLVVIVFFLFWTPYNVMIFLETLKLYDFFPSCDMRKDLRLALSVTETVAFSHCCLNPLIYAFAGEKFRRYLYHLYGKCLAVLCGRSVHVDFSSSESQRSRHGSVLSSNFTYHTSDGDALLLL

US28 [2] = target: T1, US28; remark: listed apart in the source

B1: SYN001 (other)
chain: MQHHGVTKCNITCSKMTSKIPVALLIHYQQNQASCGKRAIILETRQHRLACADPKEQWVKDAMQHLDRQAAALTRNRQPRGWEQLEQSGYPVQRLVALYLAARLSWNQVDQVIRNALASPGSGGDLGEAIREQPEQARLALTLAAAESERFVRQGTGNDEAGAASGPADSGDALLERNYPTGAEFLGDGGDISFSTRGTQNWTVERLLQAHRQLEERGYVFVGYHGTFLEAAQSIVFGGVRARSQDLDAIWRGFYIAGDPALAYGYAQDQEPDARGRIRNGALLRVYVPRSSLPGFYRTGLTLAAPEAAGEVERLIGHPLPLRLDAITGPEEEGGRLETILGWPLAERTVVIPSAIPTDPRNVGGDLDPSSIPDKEQAISALPDYASQPGKPPKDE
US28 [1]
  Log IC50, cell killing assay: -10.7 log IC50; concentration unit not printed
  Selectivity Ratio US28/CX3CR1 (cell killing IC50): 718 ratio
CX3CR1
  Log IC50, cell killing assay: -7.82 log IC50; concentration unit not printed
US28 [2]
  EC50 (log), potency assay; SYN001 1 mg/L, 0 min in perfusate at 37 C: -9.95 log EC50; concentration unit not printed
  EC50 (log), potency assay; SYN001 1 mg/L, 15 min in perfusate at 37 C: -9.95 log EC50; concentration unit not printed
  EC50 (log), potency assay; SYN001 1 mg/L, 180 min in perfusate at 37 C: -10 log EC50; concentration unit not printed
  EC50 (log), potency assay; SYN001 1 mg/L, 300 min in perfusate at 37 C: -9.93 log EC50; concentration unit not printed
